Reference: patent US20230272054A1, “COMBINATION THERAPIES FOR THE TREATMENT AND PREVENTION OF BIOFILMS” (priority 2020, published 2023)
“Also recorded” adds a separate entry of the source.

How the values were obtained:
[1] = tested on: biofilms formed by UPEC, B. cenocepacia, NTHI, Enterobacter spp, S. aureus, K. pneumoniae, A. baumanii, P. aeruginosa, E. faecium; test: Disruption of 24 h bacterial biofilms in vitro by HMGB1 isoforms (LIVE/DEAD stain, CLSM, COMSTAT average thickness); conditions: 24 h biofilms of nine pathogens; 200 nM protein, 16 h (S. aureus 800 nM rHMGB1; E. faecium 800 nM, 1 h)
Human neutrophils = test: NET formation by neutrophils incubated with HMGB1 isoforms (CLSM); assay type: cell-based; conditions: 200 nM protein, 3.5 h
Experimental: Neutrophils were fixed, then labeled as described above to visualize the NETs.
Visualization of NETs structure upon incubation of neutrophils with various isoforms of HMGB1: Human neutrophils were isolated from blood using the EASYSEP™ isolation kit (Stemcell Technologies Inc.). […] NETs were fixed in formalin, blocked with 10% normal goat serum (Life Technologies), and labeled with α-dsDNA monoclonal antibody (1 μg), and α-neutrophil elastase polyclonal antibody (1 μg) or naive rabbit and mouse isotype controls (1 μg) in 200 μl PBS for 16 h hours at 4° C. NETs were washed with PBS and incubated for 1 h with 1:200 dilution goat α-rabbit IgG conjugated to ALEXAFLUOR® 594, goat α-mouse IgG conjugated to ALEXAFLUOR® 488, and 1:500 dilution wheat germ agglutinin conjugated to ALEXAFLUOR® 350 (PMN membrane stain). NETs were imaged with a Zeiss LSM 800 confocal microscope (Carl Zeiss Inc.) and rendered with Zeiss Zen software.

B. cenocepacia = test: Murine model of lung infection by B. cenocepacia, bacterial burden; conditions: 0.2 nmol i.t. at 24 hpi; 72 hpi; α-EF-Tu labeling
Experimental: Intratracheal challenge of the murine lung with B. cenocepacia and treatment with HMGB1 isoforms: B. cenocepacia strain K56-2, was cultured in LB broth (Difco, Md.) at 37° C. overnight at 200 rpm. Bacterial concentration was adjusted before each experiment based on OD at 600 nm. C57BL/6 mice were infected intratracheally (i.t.) with 10^7 colony forming units (CFU) of B. cenocepacia. […] Animals were euthanized 24 or 48 hpi, and bronchoalveolar lavage (BAL) was collected with 1 ml of PBS plus 1 mM EDTA. […] The slides were permeabilized with 0.5% Triton X-100 for 10 minutes, blocked with 10% normal goat serum (Abcam) for 30 minutes and stained with a monoclonal antibody against E. coli Elongation Factor-Tu (α-EF-Tu; cross reacts with B. cenocepacia) (LSBio) overnight to label B. cenocepacia. The samples were then stained with goat α-mouse IgG Alexa Fluor 488 (Abcam) for 1 h at RT, mounted with fluoroshield media with DAPI (Abcam), visualized via the Nikon Eclipse Ti at 40× magnification (Nikon Instrument Inc. Americas) and analyzed by ImageJ software (NIH). To enumerate bacterial burden, the animals were euthanized 18 or 72 hpi, bronchoalveolar lavage was collected with 1 ml of PBS plus 1 mM EDTA, an aliquot of BAL was serially diluted and plated on LB agar. […] Neither animals nor samples were excluded from evaluation in any study.

[2] = tested on: pro-inflammatory and anti-inflammatory cytokines; test: Quantitation of cytokines in middle ear fluids (cytometric bead array); assay type: in vivo, chinchilla (Chinchilla lanigera); conditions: six days after NTHI challenge, one day after completion of treatment
Experimental: Quantitation of cytokines in middle ear fluids: To quantitate cytokines in middle ear fluids (MEF), a BD™ Cytometric Bead Array was performed with fluids collected at the time of animal sacrifice. With BD™ human-specific Flex Sets, each MEF was individually examined for relative quantity of IL-1β, IL-4, IL-6, IL-8, IL-10, IL12-p70, IL-13, IL-17A, TNF or IFNγ according to manufacturer's instructions. MEFs from each animal were assayed individually. Data were captured on a BD ACCURI™ C6 cytometer (BD Biosciences) and analyzed with FlowJo software (FlowJo, LLC). The concentration of cytokines in each MEF was determined using a standard curve and calculated using GraphPad Prism software.

UPEC biofilms [3] = test: Disruption of 24 h UPEC biofilms in vitro (CLSM, COMSTAT average thickness); conditions: 24 h UPEC biofilms, indicated concentrations of rHMGB1
TNF-α = test: Mouse model of endotoxemia, serum TNF-α by ELISA; assay type: in vivo, C57BL/6 mice; conditions: i.p. 0.2 nmol endotoxin-free rHMGB1 or LPS 5 mg/kg; 24 h
Experimental: Since excess HMGB1 can mediate dysregulated host response to infection associated with septic shock, the ability of rHMGB1 (0.2 nmol; the concentration used to treat in vivo biofilms) to induce septic shock was evaluated in mice. Mice were injected i.p. with either 0.2 nmol endotoxin-free rHMGB1, lipopolysaccharide (LPS; 5 mg/kg) or both, then monitored for signs of septic shock for 24 hours.
Mouse model of endotoxemia: C57BL/6 mice were injected i.p. with 5 mg/kg of E. coli lipopolysaccharide (Sigma), or 0.2 nmol rHMGB1 alone or in combination with LPS. Animals were euthanized 24 h later, serum was collected, and TNF-α was quantified by ELISA (ThermoFisher).

[4] = tested on: eDNA lattice within K. pneumoniae biofilms; test: Visualization of eDNA lattice structure within K. pneumoniae biofilms (immunofluorescence, CLSM); assay type: cell-based, Klebsiella pneumoniae; conditions: 24 h K. pneumoniae biofilms, 200 nM protein, 16 h
Excerpt: Per the model as disclosed herein, HMGB1 would compete with DNABII proteins, wherein instead of stabilization, HMGB1 would de-stabilize these HJ-like structures and consequently disrupt the biofilm.

E. faecium biofilms = test: Disruption of 24 h E. faecium biofilms in vitro (CLSM, COMSTAT average thickness); conditions: 24 h biofilms, 1 h incubation; non-bactericidal dose
HJ DNA = test: Stabilization of HJ DNA at RT or 55° C, non-denaturing PAGE; assay type: binding; conditions: 32P HJ DNA, 25-500 nM protein, 10 min
Experimental: 5′ end-labeled ^32P HJ DNA was incubated with increasing concentrations (25-500 nM) of IHF (FIG. 8A), rHMGB1 (FIG. 8B) or RuvA (FIG. 8C) either at room temperature (RT) or at 55° C. for 10 min, then resolved on a 6% non-denaturing PAGE. Asterisk indicates melted oligos and arrows indicate DNA-protein complex. […] This outcome contrasts with that observed with both IHF and the prototypic HJ DNA binding protein, RuvA.
To test the hypothesis, HJ DNA was incubated with either HMGB1, the DNABII protein IHF, or the prototypic HJ DNA binding protein, RuvA at room temperature (RT) or 55° C. (melting temperature of HJ DNA) and resolved the complexes by non-denaturing polyacrylamide gel electrophoresis (PAGE). […] (FIG. 8) as indicated by the decrease in abundance of the shifted HJ DNA-HMGB1 complex (arrow) and the concomitant increase in the constituent melted oligos (asterisk).
Electrophoretic mobility shift assay (EMSA): EMSA was performed as previously described (Devaraj et al., 2019).

S. aureus biofilms = test: Disruption of 24 h S. aureus biofilms in vitro (CLSM, COMSTAT average thickness); conditions: 24 h biofilms, 16 h; non-bactericidal dose
UPEC biofilms [5] = conditions: 24 h UPEC biofilms, rHMGB1 200 nM, 16 h
neutrophils in BAL = test: Inflammatory cell recruitment into lungs of B. cenocepacia-challenged mice (H&E, flow cytometry of BAL); assay type: in vivo, C57BL/6 mice; conditions: B. cenocepacia-infected and simultaneously treated, 0.2 nmol, 18 hpi
[6] = as above; assay type: in vivo, C57BL/6 mice; conditions: B. cenocepacia-challenged mice, 0.2 nmol, 72 hpi

B1: rHMGB1: recombinant HMGB1 derived from a human, expressed and purified in E. coli, SEQ ID NO: 51; comparator to mHMGB1 (protein, listed as Homo sapiens)
chain: MGKGDPKKPRGKMSSYAFFVQTCREEHKKKHPDASVNFSEFSKKCSERWKTMSAKEKGKFEDMAKADKARYEREMKTYIPPKGETKKKFKDPNAPKRPPSAFFLFCSEYRPKIKGEHPGLSIGDVAKKLGEMWNNTAADDKQPYEKKAAKLKEKYEKDIAAYRAKGKPDAAKKGVVKAEKSKKKKEEEEGEEDEEDEEEEEDEEDEDEEEDDDDE
- biofilm average thickness compared to control [1]: significantly disrupted bacterial biofilms; also recorded: significant reduction in biofilm average thickness
- induction of NET formation by neutrophils (Human neutrophils): intertwined NETs specifically formed; also recorded: modest effect on induction of NETs
- B. cenocepacia stained within the lung tissue (B. cenocepacia): significantly reduced bacterial load
- IL-1β in middle ear fluids [2]: significantly elevated concentration; also recorded: statistically significant increase
- IL-17A in middle ear fluids [2]: significantly elevated concentration; also recorded: statistically significant increase
- dose dependence of UPEC biofilm disruption (UPEC biofilms [3]): dose-dependent disruption; also recorded: dose-dependent activity
- serum TNF-α (septic shock) (TNF-α): did not induce septic shock; also recorded: did not induce detectable TNF-α
- biofilm bacteria (FilmTracer FM 4-64) [4]: substantial reduction in biofilm bacteria
- web-like eDNA lattice structure within biofilm [4]: disruption of the web-like structure; also recorded: notably disrupted
- dose required to achieve a similar reduction in biofilm average thickness, E. faecium (E. faecium biofilms): 800 nM
- stabilization of HJ DNA at 55° C (melting temperature of HJ DNA) (HJ DNA): unstable at 55 °C
- stabilization of HJ DNA at 55° C (melting temperature of HJ DNA) (HJ DNA; listed as HMGB1): unable to efficiently stabilize the HJ DNA at 55 °C
- HJ DNA-protein complex at room temperature (RT) (HJ DNA): stable at RT
- HJ DNA-protein complex at room temperature (RT) (HJ DNA; listed as HMGB1): bound to HJ DNA to form stable complexes at RT
- dose required to achieve a similar reduction in biofilm average thickness, S. aureus (S. aureus biofilms): 800 nM
- bacteria in the planktonic state (UPEC biofilms [5]): statistically significant increase in the planktonic bacteria
- biofilm-resident bacteria (UPEC biofilms [5]): statistically significant decrease in biofilm-resident bacteria
- neutrophils in BAL (flow cytometry) (neutrophils in BAL): significantly greater number of neutrophils in BAL compared to the control
- infiltration of inflammatory cells into lungs (H&E) [6]: significant infiltration of inflammatory cells
